Starred links: 1 amine or outer side, 2 acyl side, 3 side chain; linkers in the order of their positions; H or OH if unused. Non-standard residues stand in square brackets, D forms with d. Groups on a side chain read outwards from the residue. No end group written: not given here. *: point of attachment. C18 diacid = O=C(O)CCCCCCCCCCCCCCCCC(=O)*; γGlu = O=C(O)[C@H](CCC(=O)[*:2])N[*:1]; AEEA = NCCOCCOCC(=O)O; Aib = CC(C)(N)C(=O)O
Legend:
Assay in all cases: cell-based or functional assay
[1] = target: T1, anti-target CRF1R receptor (UniProt P34998 24-415, limits assumed)
T1 sequence (looked up): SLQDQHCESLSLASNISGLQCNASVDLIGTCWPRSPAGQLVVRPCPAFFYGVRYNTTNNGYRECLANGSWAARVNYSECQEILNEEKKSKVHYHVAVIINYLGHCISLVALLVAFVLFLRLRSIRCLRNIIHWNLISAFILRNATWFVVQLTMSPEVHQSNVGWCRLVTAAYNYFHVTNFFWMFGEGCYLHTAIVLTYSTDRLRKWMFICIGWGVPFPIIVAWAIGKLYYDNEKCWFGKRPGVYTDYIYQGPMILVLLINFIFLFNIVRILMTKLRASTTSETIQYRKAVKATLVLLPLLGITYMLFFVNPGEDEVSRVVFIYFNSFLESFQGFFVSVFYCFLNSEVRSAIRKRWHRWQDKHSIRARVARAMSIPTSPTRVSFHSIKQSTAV

[2] = target: T2, endogenous human CRF2 (NCI-H82 cells) (human, UniProt Q13324 20-411)
T2 sequence (looked up): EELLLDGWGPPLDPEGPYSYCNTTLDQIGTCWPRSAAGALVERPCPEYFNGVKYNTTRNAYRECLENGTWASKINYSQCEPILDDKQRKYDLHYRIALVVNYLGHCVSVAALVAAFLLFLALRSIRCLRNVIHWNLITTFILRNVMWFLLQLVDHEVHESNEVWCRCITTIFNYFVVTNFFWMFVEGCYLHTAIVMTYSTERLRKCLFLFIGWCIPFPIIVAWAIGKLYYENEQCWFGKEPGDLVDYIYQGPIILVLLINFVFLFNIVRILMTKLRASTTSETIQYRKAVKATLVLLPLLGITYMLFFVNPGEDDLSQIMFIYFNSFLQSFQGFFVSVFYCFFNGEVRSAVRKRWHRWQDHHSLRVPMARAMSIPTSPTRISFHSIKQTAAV

rat CRF2R α receptor = rat CRF2R α receptor (rat, UniProt P47866 20-411)

B1: peptide of SEQ ID NO: 147 (peptide)
peptide: IVLSLD[dV]PIGLK([AEEA-AEEA-γGlu-C18 diacid])QILLKQERQKK[Aib]REQAETNKQILAQV-NH2
modifications: N-terminus assumed
SMILES: CC[C@H](C)[C@H](N)C(=O)N[C@H](C(=O)N[C@@H](CC(C)C)C(=O)N[C@@H](CO)C(=O)N[C@@H](CC(C)C)C(=O)N[C@@H](CC(=O)O)C(=O)N[C@@H](C(=O)N1CCC[C@H]1C(=O)N[C@H](C(=O)NCC(=O)N[C@@H](CC(C)C)C(=O)N[C@@H](CCCCNC(=O)COCCOCCNC(=O)COCCOCCNC(=O)CC[C@H](NC(=O)CCCCCCCCCCCCCCCCC(=O)O)C(=O)O)C(=O)N[C@@H](CCC(N)=O)C(=O)N[C@H](C(=O)N[C@@H](CC(C)C)C(=O)N[C@@H](CC(C)C)C(=O)N[C@@H](CCCCN)C(=O)N[C@@H](CCC(N)=O)C(=O)N[C@@H](CCC(=O)O)C(=O)N[C@@H](CCCNC(=N)N)C(=O)N[C@@H](CCC(N)=O)C(=O)N[C@@H](CCCCN)C(=O)N[C@@H](CCCCN)C(=O)NC(C)(C)C(=O)N[C@@H](CCCNC(=N)N)C(=O)N[C@@H](CCC(=O)O)C(=O)N[C@@H](CCC(N)=O)C(=O)N[C@@H](C)C(=O)N[C@@H](CCC(=O)O)C(=O)N[C@H](C(=O)N[C@@H](CC(N)=O)C(=O)N[C@@H](CCCCN)C(=O)N[C@@H](CCC(N)=O)C(=O)N[C@H](C(=O)N[C@@H](CC(C)C)C(=O)N[C@@H](C)C(=O)N[C@@H](CCC(N)=O)C(=O)N[C@H](C(N)=O)C(C)C)[C@@H](C)CC)[C@@H](C)O)[C@@H](C)CC)[C@@H](C)CC)C(C)C)C(C)C
EC50[nM] 0% HSA (cAMP, CRF1R-overexpression CHO cells) [1]: > 1000 nM | Emax (%) (cAMP, CRF1R-overexpression CHO cells) [1]: 4.54% | EC50 [nM] (cAMP, NCI-H82 cells) [2]: 13 nM | EC50 [nM], 0% HSA (cAMP, A7R5 cells) (rat CRF2R α receptor): 2.53 nM

B2: peptide of SEQ ID NO: 151 (peptide)
peptide: IVLSLD[dV]PIGLK([AEEA-AEEA-γGlu-C18 diacid])QILLKQERQKK[Aib]REQAEKNKRILERV-NH2
modifications: N-terminus assumed
SMILES: CC[C@H](C)[C@H](N)C(=O)N[C@H](C(=O)N[C@@H](CC(C)C)C(=O)N[C@@H](CO)C(=O)N[C@@H](CC(C)C)C(=O)N[C@@H](CC(=O)O)C(=O)N[C@@H](C(=O)N1CCC[C@H]1C(=O)N[C@H](C(=O)NCC(=O)N[C@@H](CC(C)C)C(=O)N[C@@H](CCCCNC(=O)COCCOCCNC(=O)COCCOCCNC(=O)CC[C@H](NC(=O)CCCCCCCCCCCCCCCCC(=O)O)C(=O)O)C(=O)N[C@@H](CCC(N)=O)C(=O)N[C@H](C(=O)N[C@@H](CC(C)C)C(=O)N[C@@H](CC(C)C)C(=O)N[C@@H](CCCCN)C(=O)N[C@@H](CCC(N)=O)C(=O)N[C@@H](CCC(=O)O)C(=O)N[C@@H](CCCNC(=N)N)C(=O)N[C@@H](CCC(N)=O)C(=O)N[C@@H](CCCCN)C(=O)N[C@@H](CCCCN)C(=O)NC(C)(C)C(=O)N[C@@H](CCCNC(=N)N)C(=O)N[C@@H](CCC(=O)O)C(=O)N[C@@H](CCC(N)=O)C(=O)N[C@@H](C)C(=O)N[C@@H](CCC(=O)O)C(=O)N[C@@H](CCCCN)C(=O)N[C@@H](CC(N)=O)C(=O)N[C@@H](CCCCN)C(=O)N[C@@H](CCCNC(=N)N)C(=O)N[C@H](C(=O)N[C@@H](CC(C)C)C(=O)N[C@@H](CCC(=O)O)C(=O)N[C@@H](CCCNC(=N)N)C(=O)N[C@H](C(N)=O)C(C)C)[C@@H](C)CC)[C@@H](C)CC)[C@@H](C)CC)C(C)C)C(C)C
EC50[nM] 0% HSA (cAMP, CRF1R-overexpression CHO cells) [1]: > 1000 nM | Emax (%) (cAMP, CRF1R-overexpression CHO cells) [1]: 9.07% | EC50 [nM] (cAMP, NCI-H82 cells) [2]: 7.4 nM | EC50 [nM], 0% HSA (cAMP, A7R5 cells) (rat CRF2R α receptor): 0.49 nM

From US12679878B2, “CRF2 receptor agonists and their use in therapy” (SANOFI, priority 2020, dated 2026)
